This is an account of results in paper PMC8918029 (Journal of medicinal chemistry, 2021).

This assay concerns the target γ-secretase complex (presenilin-1, nicastrin, Aph-1, Pen-2) (UniProt Q92542 34-709; Q96BI3 1-265; Q9NZ42 1-101). The assay is described as follows: enzyme inhibition kinetics.

Square brackets hold non-standard residues; d marks the D form. * marks the point of attachment. Boc = CC(C)(C)OC(=O)*; Aib = CC(C)(N)C(=O)O

A word on the Ki: it is a dissociation constant, usually derived from enzyme kinetics or from competition with a known ligand. The low end stands for tighter binding, the high end for weaker binding. Boc-VG[Aib]VVI[Aib]FV[Aib]GGGVFFLV-NH2 (also: hydroxyethylurea isostere (ψ) between the two Phe (15-16)) [HPI-TSA conjugate 28] returned a Ki of 1.19 ± 0.1 nM.
